US6544767

Target: mature recombinant human cathepsin O2 (human) (UniProt P43235)
Assay: cell-based or functional assay

Chain of mature recombinant human cathepsin O2 (human) (P43235 115-329): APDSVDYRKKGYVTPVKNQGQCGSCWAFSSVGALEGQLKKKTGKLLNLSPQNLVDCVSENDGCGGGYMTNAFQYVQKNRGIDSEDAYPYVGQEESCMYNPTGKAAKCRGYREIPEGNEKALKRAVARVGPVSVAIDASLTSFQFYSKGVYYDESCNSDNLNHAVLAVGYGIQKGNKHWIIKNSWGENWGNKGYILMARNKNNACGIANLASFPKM

“chicken cystatin (from UniProt P01038 24-139)” was tested, and the % inhibition (of cathepsin O2 activity, fluorimetric Z-FR-MCA assay, 0.1 µM inhibitor) was 100%.
